Earlier results on 1 substance are cited in paper PMC5040164.

In the data set the target is SAS1B (Mus musculus) (UniProt Q6HA09).
Chain of UniProt Q6HA09 (Q6HA09 24-435): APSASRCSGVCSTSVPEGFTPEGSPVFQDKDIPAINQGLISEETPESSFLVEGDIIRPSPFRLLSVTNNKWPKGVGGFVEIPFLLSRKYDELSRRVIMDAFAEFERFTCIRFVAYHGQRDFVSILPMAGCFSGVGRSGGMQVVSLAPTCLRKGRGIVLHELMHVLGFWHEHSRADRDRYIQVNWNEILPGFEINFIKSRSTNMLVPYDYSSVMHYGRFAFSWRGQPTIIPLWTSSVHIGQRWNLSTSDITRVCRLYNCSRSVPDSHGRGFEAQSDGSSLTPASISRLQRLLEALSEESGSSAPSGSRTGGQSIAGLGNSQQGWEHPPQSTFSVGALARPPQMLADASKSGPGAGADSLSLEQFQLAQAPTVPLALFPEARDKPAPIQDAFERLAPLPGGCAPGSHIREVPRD

As to SLLP1 (from UniProt Q9D9X8), the Kd is 0.32 nM.

The Kd is a measure of binding affinity in units of concentration.
